Experimental findings from patent publication US20230103563A1 (Sanofi, published 2023) are described below.

The target of test [1] is T1, human IL4 (IL004, Millipore) (human, UniProt P05112 25-153).
T1 construct: Bought protein, used as analyte in SPR; also called interleukin IL4
T1 sequence (looked up): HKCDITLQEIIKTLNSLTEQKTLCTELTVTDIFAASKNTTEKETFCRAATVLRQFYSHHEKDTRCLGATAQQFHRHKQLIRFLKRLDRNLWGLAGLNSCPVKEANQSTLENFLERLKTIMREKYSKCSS
The test is described as follows: SPR (Biacore 3000), construct captured, IL4 as analyte; summary table. How it is done: (§1) Binding of antigens to the antibody constructs was measured using surface plasmon resonance (SPR) on a BIAcore 3000 instrument (GE Healthcare) with HBS-EP buffer (GE Healthcare). As antigens human IL4 (IL004, Millipore) and human IL13 (IL012, Millipore) were used. The capture antibody (human antibody capture kit, His capture kit, Fab capture kit, GE Life Sciences) was immobilized via primary amine groups (11000 RU) on a research grade CMS chip (GE Life Sciences) using standard procedures. […] The antigens human IL4 and human IL13 were used as analytes and injected for 240 sec with a dissociation time of 300 sec at a flow rate of 30 μL/min. IL4 and IL13 were used in a dilution series of 0.1 nM to 3 nM and 0.8 nM to 25 nM, respectively. Chip surfaces were regenerated with 2 min injects of the regeneration buffer provided with the capture kit. Sensorgrams were double referenced with a blank chip surface and HBS-EP buffer blanks. Recombinant human neonatal Fc-receptor (FcRn) protein was immobilized via primary amine groups (200 RU) in the sample flow cell compartment of a research grade CMS chip (GE Life Sciences) using standard procedures. The reference flow cell compartment was activated and deactivated without FcRn immobilization to generate a blank chip surface. For the analysis an assay buffer with pH 6.0 was used (150 mM NaCl, 20 mM Na-phosphate, 0.05% surfactant P20, pH6.0). The antibody was used as analyte at 800 nM dilution in assay buffer and injected over reference and sample flow cells for 240 sec with a dissociation time of 300 sec at a flow rate of 30 μL/min. Chip surfaces were regenerated with 2 min injects of HBS-EP buffer at 30 μl/min. Sensorgrams were double referenced with a the blank chip surface and HBS-EP buffer blanks. All data analysis was done using the BIAevaluation software v4.1.
(In general: In SPR one partner is held on a chip, and binding of the other changes the refractive index at the surface.)

Test [2] deals with T1, human IL4 (IL004, Millipore). As to the kind of experiment: SPR (Biacore), variant captured with human antibody capture kit, IL4 as analyte. The method, then:
as §1

Test [3] has the same target. The test is described as follows: SPR (Biacore), variant captured with Fab-capture kit, IL4 as analyte. How it is done: as §1
The target is the same in test [4]. As to the kind of experiment: SPR (Biacore), variant captured with His-capture kit, IL4 as analyte. The method, then:
as §1

In general, Kd refers to the concentration at which binding is half-saturated. A word on the koff: it is the rate constant with which the complex falls apart. A higher koff goes with fast dissociation. The kon is the rate constant with which the complex forms.

B1: protein variant (8), Diabody Split CH2 tetravalent bispecific antibody (bispecific antibody, human IgG4 S228P)
chain 1: DIVLTQSPASLAVSLGQRATISCRASESVDSYGQSYMHWYQQKAGQPPKLLIYLASNLESGVPARFSGSGSRTDFTLTIDPVQAEDAATYYCQQNAEDSRTFGGGTKLEIKGGGSGGGGQVQLQQSGPELVKPGASVKISCKASGYSFTSYWIHWIKQRPGQGLEWIGMIDPSDGETRLNQRFQGRATLTVDESTSTAYMQLRSPTSEDSAVYYCTRLKEYGNYDSFYFDVWGAGTLVTVSSGGPSVFLFPPKPKDTLMISRTPEVTCVVVDVSHEDPEVKFNWYVDGVEVHN
chain 2: not shown
notes: variant (1) fused to an IgG Fc-domain
B1 registered a dissociation constant Kd in test [1] of 1.43 pM. Moreover, in test [2], the Kd came out at 1.43 pM, the koff worked out at 0.000135 s⁻¹ and the on-rate constant (kon) was 9.49e+07 M⁻¹ s⁻¹.

B2: protein variant (10), CODV-Split CH2 tetravalent bispecific antibody (bispecific antibody, human IgG4 S228P, kappa)
chain 1: DIVLTQSPASLAVSLGQRATISCRASESVDSYGQSYMHWYQQKAGQPPKLLIYLASNLESGVPARFSGSGSRTDFTLTIDPVQAEDAATYYCQQNAEDSRTFGGGTKLEIKGQPKAAPSDIQMTQSPASLSVSVGDTITLTCHASQNIDVWLSWFQQKPGNIPKLLIYKASNLHTGVPSRFSGSGSGTGFTLTISSLQPEDIATYYCQQAHSYPFTFGGGTKLEIKTKGPSVFRTVAAPSVFIFPPSDEQLKSGTASVVCLLNNFYPREAKVQWKVDNALQSGNSQESVTEQDSKDSTYSLSSTLTLSKADYEKHKVYACEVTHQGLSSPVTKSFNRGECGGPSVFLFPPKPKDTLMISRTPEVTCVVVDVSHEDPEVKFNWYVDGVEVHN
chain 2: not shown
notes: variant (3) fused to an IgG Fc-domain
As for B2, the Kd in test [1] is 0.222 pM. In test [2], this molecule gave a Kd of 0.222 pM, a koff of 0.000204 s⁻¹ and a kon of 9.19e+08 M⁻¹ s⁻¹.

B3: protein variant (3), CODV-Fab Split CH2 (anti-IL4/anti-IL13) (bispecific antibody, IgG1)
chain 1: B2 chain 1
chain 2: QVQLQQSGPELVKPGASVKISCKASGYSFTSYWIHWIKQRPGQGLEWIGMIDPSDGETRLNQRFQGRATLTVDESTSTAYMQLRSPTSEDSAVYYCTRLKEYGNYDSFYFDVWGAGTLVTVSSSEVQLKESGPGLVAPGGSLSITCTVSGFSLTDSSINWVRQPPGKGLEWLGMIWGDGRIDYADALKSRLSISKDSSKSQVFLEMTSLRTDDTATYYCARDGYFPYAMDFWGQGTSVTVSSASTKGPSVFPLAPSSKSTSGGTAALGCLVKDYFPEPVTVSWNSGALTSGVHTFPAVLQSSGLYSLSSVVTVPSSSLGTQTYICNVNHKPSNTKVDKKVEPKSCDKGGGAKTKPREEQYNSTYRVVSVLTVLHQDWLNGKEYKCKVSNKALPAPIEKTISKAKGQPREHHHHHH
notes: Fab-like cross-over format with IgG1 split CH2 domain
In test [3], B3 yielded a Ka of 1.83e+11 M⁻¹, a dissociation constant (Kd) of 5.48 pM, a koff of 0.000452 s⁻¹ and a kon of 8.26e+07 M⁻¹ s⁻¹. Also, binding in test [1] was characterised by a dissociation constant (Kd) of 5.48 pM.

B4: protein variant (4), Diabody Split CH2 (included) ("Splite") (bispecific antibody, IgG1)
chain 1: DIVLTQSPASLAVSLGQRATISCRASESVDSYGQSYMHWYQQKAGQPPKLLIYLASNLESGVPARFSGSGSRTDFTLTIDPVQAEDAATYYCQQNAEDSRTFGGGTKLEIKGGPSVFLFPPKPKDTLMISRTPEVTCVVVDVSHEDPEVKFNWYVDGVEVHNGGGGSGGGGSGGGGSDIQMTQSPASLSVSVGDTITLTCHASQNIDVWLSWFQQKPGNIPKLLIYKASNLHTGVPSRFSGSGSGTGFTLTISSLQPEDIATYYCQQAHSYPFTFGGGTKLEIK
chain 2: EVQLKESGPGLVAPGGSLSITCTVSGFSLTDSSINWVRQPPGKGLEWLGMIWGDGRIDYADALKSRLSISKDSSKSQVFLEMTSLRTDDTATYYCARDGYFPYAMDFWGQGTSVTVSSGGGGSGGGGSGGGGSAKTKPREEQYNSTYRVVSVLTVLHQDWLNGKEYKCKVSNKALPAPIEKTISKAKGQPREQVQLQQSGPELVKPGASVKISCKASGYSFTSYWIHWIKQRPGQGLEWIGMIDPSDGETRLNQRFQGRATLTVDESTSTAYMQLRSPTSEDSAVYYCTRLKEYGNYDSFYFDVWGAGTLVTVSSHHHHHH
notes: Split IgG1 CH2 domain inserted between the variable domains; also called splite diabody
Take B4: in test [4], the affinity, expressed as Kd, was 64.8 pM; the koff came to 0.000224 s⁻¹; the kon came to 3.46e+06 M⁻¹ s⁻¹. The molecule further showed a Kd in test [1] of 64.8 pM.

B5: protein variant (11), Split CH2 bivalent bispecific antibody (bispecific antibody, human IgG4 S228P, kappa)
heavy: EVQLKESGPGLVAPGGSLSITCTVSGFSLTDSSINWVRQPPGKGLEWLGMIWGDGRIDYADALKSRLSISKDSSKSQVFLEMTSLRTDDTATYYCARDGYFPYAMDFWGQGTSVTVSSASTKGPSVFPLAPCSRSTSESTAALGCLVKDYFPEPVTVSWNSGALTSGVHTFPAVLQSSGLYSLSSVVTVPSSSLGTKTYTCNVDHKPSNTKVDKRVESKYGPPCPPCPAPEFEGGPSVFLFPPKPKDTLMISRTPEVTCVVVDVSQEDPEVQFNWYVDGVEVHNAKTKPREEQFNSTYRVVSVLTVLHQDWLNGKEYKCKVSNKGLPSSIEKTISKAKGQPREPQVCTLPPSRDELTKNQVSLSCAVKGFYPSDIAVEWESNGQPENNYKTTPPVLDSDGSFFLVSKLTVDKSRWQQGNVFSCSVMHEALHNRFTQKSLSLSPG
light: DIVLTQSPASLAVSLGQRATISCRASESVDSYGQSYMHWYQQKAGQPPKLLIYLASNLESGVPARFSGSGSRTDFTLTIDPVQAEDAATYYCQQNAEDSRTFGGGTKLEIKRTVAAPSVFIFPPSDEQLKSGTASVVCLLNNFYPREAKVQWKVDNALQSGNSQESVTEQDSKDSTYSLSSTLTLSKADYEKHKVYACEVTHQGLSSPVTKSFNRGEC
chain 1: QVQLQQSGPELVKPGASVKISCKASGYSFTSYWIHWIKQRPGQGLEWIGMIDPSDGETRLNQRFQGRATLTVDESTSTAYMQLRSPTSEDSAVYYCTRLKEYGNYDSFYFDVWGAGTLVTVSSGGGGGSGGGGGSAKTKPREEQYNSTYRVVSVLTVLHQDWLNGKEYKCKVSNKALPAPIEKTISKAKGQPREGGGSGSAESKYGPPCPPCPAPEFEGGPSVFLFPPKPKDTLMISRTPEVTCVVVDVSQEDPEVQFNWYVDGVEVHNAKTKPREEQFNSTYRVVSVLTVLHQDWLNGKEYKCKVSNKGLPSSIEKTISKAKGQPREPQVYTLPPCRDELTKNQVSLWCLVKGFYPSDIAVEWESNGQPENNYKTTPPVLDSDGSFFLYSKLTVDKSRWQQGNVFSCSVMHEALHNHYTQKSLSLSPG
chain 2: DIQMTQSPASLSVSVGDTITLTCHASQNIDVWLSWFQQKPGNIPKLLIYKASNLHTGVPSRFSGSGSGTGFTLTISSLQPEDIATYYCQQAHSYPFTFGGGTKLEIKGGGGPSVFLFPPKPKDTLMISRTPEVTCVVVDVSHEDPEVKFNWYVDGVEVHN
notes: Four chains; on one arm CH1 and CL are replaced by the split CH2 domain; heavy chains heterodimerize by knob-into-hole mutations
In test [1], B5 had a Kd of 1.3 pM. In test [2], this molecule came in with a Kd of 1.3 pM, a koff of 8.91e-05 s⁻¹ and a kon of 6.84e+07 M⁻¹ s⁻¹.

B6: protein variant (12), Split CH2 bivalent bispecific antibody (bispecific antibody, human IgG4 S228P, kappa)
heavy: B5 heavy
light: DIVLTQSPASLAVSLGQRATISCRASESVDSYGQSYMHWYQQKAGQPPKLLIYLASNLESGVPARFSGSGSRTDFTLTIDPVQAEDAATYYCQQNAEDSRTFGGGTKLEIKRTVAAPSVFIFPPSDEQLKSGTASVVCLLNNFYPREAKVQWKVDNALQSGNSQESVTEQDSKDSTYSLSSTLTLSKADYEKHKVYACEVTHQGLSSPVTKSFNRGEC
chain 1: DIQMTQSPASLSVSVGDTITLTCHASQNIDVWLSWFQQKPGNIPKLLIYKASNLHTGVPSRFSGSGSGTGFTLTISSLQPEDIATYYCQQAHSYPFTFGGGTKLEIKGGGGGSGGGGGSAKTKPREEQYNSTYRVVSVLTVLHQDWLNGKEYKCKVSNKALPAPIEKTISKAKGQPREGGGSGSAESKYGPPCPPCPAPEFEGGPSVFLFPPKPKDTLMISRTPEVTCVVVDVSQEDPEVQFNWYVDGVEVHNAKTKPREEQFNSTYRVVSVLTVLHQDWLNGKEYKCKVSNKGLPSSIEKTISKAKGQPREPQVYTLPPCRDELTKNQVSLWCLVKGFYPSDIAVEWESNGQPENNYKTTPPVLDSDGSFFLYSKLTVDKSRWQQGNVFSCSVMHEALHNHYTQKSLSLSPG
chain 2: QVQLQQSGPELVKPGASVKISCKASGYSFTSYWIHWIKQRPGQGLEWIGMIDPSDGETRLNQRFQGRATLTVDESTSTAYMQLRSPTSEDSAVYYCTRLKEYGNYDSFYFDVWGAGTLVTVSSGGGGPSVFLFPPKPKDTLMISRTPEVTCVVVDVSHEDPEVKFNWYVDGVEVHN
notes: as for B5
Turning to B6, the Kd in test [1] and in test [2] was 0.922 pM each time.

B7: protein variant (9), DVD-Split CH2 tetravalent bispecific antibody (bispecific antibody, human IgG4 S228P, kappa)
chain 1: DIVLTQSPASLAVSLGQRATISCRASESVDSYGQSYMHWYQQKAGQPPKLLIYLASNLESGVPARFSGSGSRTDFTLTIDPVQAEDAATYYCQQNAEDSRTFGGGTKLEIKGGGGSGGGGSDIQMTQSPASLSVSVGDTITLTCHASQNIDVWLSWFQQKPGNIPKLLIYKASNLHTGVPSRFSGSGSGTGFTLTISSLQPEDIATYYCQQAHSYPFTFGGGTKLEIKRTVAAPSVFIFPPSDEQLKSGTASVVCLLNNFYPREAKVQWKVDNALQSGNSQESVTEQDSKDSTYSLSSTLTLSKADYEKHKVYACEVTHQGLSSPVTKSFNRGECGGPSVFLFPPKPKDTLMISRTPEVTCVVVDVSHEDPEVKFNWYVDGVEVHN
chain 2: not shown
notes: variant (2) fused to an IgG Fc-domain
As for B7, the equilibrium dissociation constant (Kd) in test [1] came out at 6.09 pM. In test [2], this molecule yielded a dissociation constant (Kd) of 6.09 pM, an off-rate (koff) of 0.000108 s⁻¹ and a kon of 1.77e+07 M⁻¹ s⁻¹.
